B1: pri-miR-186 WT (structured_RNA)
RNA: ACAGAACACCCAUCAUAUUCUUCCCAAACAUUUUUUCAUUGCUUGUAACUUUCCAAAGAAUUCUCCUUUUGGGCUUUCUGGUUUUAUUUUAAGCCCAAAGGUGAAUUUUUUGGGAAGUUUGAGCUAAAUUCCUUCAACCAAAAUAUACAAGUGAAGAAAAAAAAUUUGUAUUUAAACAUUUGCACAUUUACUUCUACCUGAAGCAUGUGAAUGUCAAC
B2: pri-miR-3173 WT (structured_RNA)
RNA: CAUUGGAGGUCUAGGGCUUAUUUUCCAGAUAGAAUUGAGUCUUUGUUGGUCUUGGGCCAGCUUCCCUGCCCUGCCUGUUUUCUCCUUUGUGAUUUUAUGAGAACAAAGGAGGAAAUAGGCAGGCCAGGGAAACGAUCUCUCUCCCUCUCUUGUGCCGAGGAAGAACU
B3: pri-miR-200a mutant #1 (structured_RNA)
RNA: CUGGCUGCUCACCGCUCCGGUUCUUCCCUGGGCUUCCACAGCAGCCCCUGCCUGCCUGGCGGGACCCCACGUCCCUCCCGGGCCCCUGUGAGCAUCUUACCGGACAGUGCUGGAUUUCCCAGCCUGUCUGGUAACGAUGUUCAAAGGUGACCCGCCGCUCGCCGGGGACACCACCGAGGCACAUC

Tests used:
NF90 [1] = biological target: T1, NF90 (UniProt Q12906-2 1-702); assay: EMSA; RNA EMSA as in ref 15; buffer, salt, pH and temperature not given; at least three replicates; details: protein: recombinant; label: radiolabel; hairpin
T1 sequence: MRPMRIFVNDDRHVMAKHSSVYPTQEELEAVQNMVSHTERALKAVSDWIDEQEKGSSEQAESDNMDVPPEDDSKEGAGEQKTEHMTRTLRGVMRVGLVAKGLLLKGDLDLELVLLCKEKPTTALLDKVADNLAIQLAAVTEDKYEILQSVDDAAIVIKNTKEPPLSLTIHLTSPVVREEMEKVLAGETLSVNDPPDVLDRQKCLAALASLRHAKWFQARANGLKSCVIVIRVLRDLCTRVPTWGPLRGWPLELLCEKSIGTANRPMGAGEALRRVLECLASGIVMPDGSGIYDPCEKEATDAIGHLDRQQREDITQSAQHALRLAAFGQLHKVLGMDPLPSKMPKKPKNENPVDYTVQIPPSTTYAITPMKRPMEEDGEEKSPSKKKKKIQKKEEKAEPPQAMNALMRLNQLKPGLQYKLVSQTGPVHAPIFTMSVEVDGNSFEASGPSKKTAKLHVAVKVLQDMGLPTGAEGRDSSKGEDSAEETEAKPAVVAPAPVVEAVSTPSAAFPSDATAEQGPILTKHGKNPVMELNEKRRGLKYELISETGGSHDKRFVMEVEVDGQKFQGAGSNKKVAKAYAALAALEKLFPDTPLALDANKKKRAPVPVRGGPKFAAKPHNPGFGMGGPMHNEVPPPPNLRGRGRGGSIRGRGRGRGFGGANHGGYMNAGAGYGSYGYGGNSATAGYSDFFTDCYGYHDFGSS

NF90 [2] = biological target: T1, NF90; assay: EMSA; enhanced vs WT; band intensities only in figure; RNA EMSA as in ref 15; buffer, salt, pH and temperature not given; at least three replicates; details: protein: recombinant; label: radiolabel; hairpin

Binder	binding result (NF90 [1])	binding result (NF90 [2])
B1	binds	
B2	binds	
B3		binds

Source: article PMC7337520, “NF90 modulates processing of a subset of human pri-miRNAs”
